# Experimental data reported in patent US20220034884A1 (GOVERNMENT OF THE UNITED STATES OF AMERICA AS REPRESENTED …, published 2022).
# B1: SARS-CoV [change] (40150-V08B1) (ligand)
# chain: not shown
# Target: T1, C-terminal GFP-tagged ACE2 fusion protein stably expressed on HEK293T cells (ACE2-GFP HEK293T) (UniProt Q9BYF1 18-805)
# T1 construct: also called ACE2-GFP HEK293T clone 2; ACE2-GFP HEK293T clone 1
# Assay: live-cell confocal imaging of ACE2-GFP HEK293T cells
# T1 sequence (Q9BYF1 18-805): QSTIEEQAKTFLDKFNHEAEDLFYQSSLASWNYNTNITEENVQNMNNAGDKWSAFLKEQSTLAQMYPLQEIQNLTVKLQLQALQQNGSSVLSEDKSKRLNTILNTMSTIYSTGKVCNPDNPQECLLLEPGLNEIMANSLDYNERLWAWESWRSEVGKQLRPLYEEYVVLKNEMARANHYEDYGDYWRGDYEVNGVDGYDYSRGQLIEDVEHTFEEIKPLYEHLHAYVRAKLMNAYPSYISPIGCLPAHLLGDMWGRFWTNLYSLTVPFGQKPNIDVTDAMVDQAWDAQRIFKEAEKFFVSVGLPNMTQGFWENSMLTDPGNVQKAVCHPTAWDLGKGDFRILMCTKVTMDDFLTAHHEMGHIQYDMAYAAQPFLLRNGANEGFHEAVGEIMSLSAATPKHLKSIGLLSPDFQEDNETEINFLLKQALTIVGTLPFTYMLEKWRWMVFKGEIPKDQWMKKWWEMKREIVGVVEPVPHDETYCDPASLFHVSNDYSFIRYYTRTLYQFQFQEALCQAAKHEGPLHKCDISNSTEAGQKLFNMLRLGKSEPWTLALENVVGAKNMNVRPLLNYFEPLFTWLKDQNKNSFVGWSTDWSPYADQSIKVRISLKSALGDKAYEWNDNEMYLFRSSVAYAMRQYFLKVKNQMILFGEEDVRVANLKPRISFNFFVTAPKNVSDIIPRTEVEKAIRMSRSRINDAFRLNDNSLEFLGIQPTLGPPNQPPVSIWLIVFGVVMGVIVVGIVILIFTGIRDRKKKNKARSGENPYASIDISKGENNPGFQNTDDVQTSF
binder,measurement,value
B1,binding result,binds
